The source of these data is patent US20080317767A1, “Tripartitle Raftophilic Strutures and their Use” (priority 2004, published 2008).

The structures appear in SMILES notation. Where a SMILES comes first, the peptide text is derived from it. [ ]: non-standard residue; d: D form. The star is where a group is joined. Piperazinyl(4-RhodamineB) = CCN(CC)c1ccc2c(-c3ccccc3C(=O)N3CCN(*)CC3)c3ccc(=[N+](CC)CC)cc-3oc2c1; X1 = CC(C)CCC[C@@H](C)[C@H]1CCC2C3CCC4C[C@@H](O*)CC[C@]4(C)C3CC[C@@]21C; Sta = CC(C)C[C@H](N)[C@@H](O)CC(=O)O; βAla = NCCC(=O)O

The nature of this data set: Qualitative solubility assessment in an aqueous medium. The class given is physicochemical.

For the molecule `CCN(CC)c1ccc2c(-c3ccccc3C(=O)N3CCN(C(=O)CC[C@H](N)C(=O)NCCC(=O)NCC(=O)N[C@@H](CCC(=O)O)C(=O)N[C@H](C(=O)N[C@@H](CC(N)=O)C(=O)N[C@@H](CC(C)C)[C@@H](O)CC(=O)N[C@H](C(=O)N[C@@H](C)C(=O)N[C@@H](CCC(=O)O)C(=O)N[C@@H](Cc4ccccc4)C(=O)N[C@@H](CCCNC(=N)N)C(=O)N[C@@H](Cc4c[nH]cn4)C(=O)N[C@@H](CC(=O)O)C(=O)N[C@@H](CO)C(=O)NCC(=O)N[C@@H](Cc4ccc(O)cc4)C(=O)N[C@@H](CCC(=O)O)C(=O)N[C@H](C(=O)N[C@@H](Cc4c[nH]cn4)C(=O)N[C@@H](Cc4c[nH]cn4)C(=O)N[C@@H](CCC(N)=O)C(=O)N[C@@H](CCCCN)C(=O)N[C@@H](CC(C)C)C(=O)N[C@H](C(=O)N[C@@H](Cc4ccccc4)C(=O)N[C@@H](Cc4ccccc4)C(=O)N[C@@H](C)C(=O)N[C@@H](CCC(=O)O)C(=O)N[C@@H](CC(=O)O)C(=O)N[C@H](C(=O)NCC(=O)N[C@@H](CO)C(=O)N[C@@H](CC(N)=O)C(=O)N[C@@H](CCCCN)C(=O)N[C@@H](CC(=O)O[C@H]4CC[C@@]5(C)C(CCC6C5CC[C@@]5(C)C6CC[C@@H]5[C@H](C)CCCC(C)C)C4)C(N)=O)C(C)C)C(C)C)C(C)C)C(C)C)C(C)C)CC3)c3ccc(=[N+](CC)CC)cc-3oc2c1` (stereo partly shown) [compound 24b] (H-E(Piperazinyl(4-RhodamineB))[βAla]GEVN[Sta]VAEFRHDSGYEVHHQKLVFFAEDVGSNKD(X1)-NH2), the “solubility in an aqueous medium (qualitative comparison of 24b and 25b)” value is given as “higher solubility”.
